The target in the test is VSV-G-pseudo-typed lentiviral vector particles (vesicular stomatitis virus) (UniProt P03522).
UniProt P03522, sequence (P03522 17-511): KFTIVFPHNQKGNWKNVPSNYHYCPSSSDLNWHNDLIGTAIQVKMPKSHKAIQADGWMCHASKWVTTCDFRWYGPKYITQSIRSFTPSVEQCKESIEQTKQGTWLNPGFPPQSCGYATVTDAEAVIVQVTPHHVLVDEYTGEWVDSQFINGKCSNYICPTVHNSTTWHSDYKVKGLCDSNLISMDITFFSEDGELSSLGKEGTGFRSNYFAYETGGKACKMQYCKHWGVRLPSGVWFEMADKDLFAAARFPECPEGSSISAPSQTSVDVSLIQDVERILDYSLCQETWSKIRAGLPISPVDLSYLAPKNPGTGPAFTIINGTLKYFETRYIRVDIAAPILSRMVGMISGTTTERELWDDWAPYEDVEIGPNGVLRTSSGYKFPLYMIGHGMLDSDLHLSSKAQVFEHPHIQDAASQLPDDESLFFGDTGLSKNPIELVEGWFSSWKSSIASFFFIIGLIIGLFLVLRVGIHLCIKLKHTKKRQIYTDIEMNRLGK

For the sequence FEKISAAE (peptide), the capacity was found to be 5e+08 TU/mL. Regarding GKEAAFAA (peptide), the LVV adsorbed was > 1e+09 TU/mL.

Values taken from patent US20260022352A1, “COMPOSITIONS AND METHODS FOR PURIFYING […]” (North Carolina State University, priority 2023, published 2026).
